The text below walks through data of patent US8247376B2, “NGAL for reduction and amelioration of ischemic and nephrotoxic injuries” (The Trustees of Columbia University, priority 2004, dated 2012).

Assay type in all cases: in vivo, mice
Data set [1] relates to tubule epithelial cells. Put plainly: TUNEL apoptosis assay on kidney sections (nuclei per 100 cells). Particulars: 24 h reflow. The procedure:
(§1) Purified endotoxin-free NGAL was administered either intravenously into mice via tail vein injections, subcutaneously, or intraperitoneally. In preliminary studies, animals were treated with three different concentrations of NGAL (50, 100, or 250 μg of a 250 μg/100 solution), subjected to 30 minutes of bilateral renal artery clamping one hour later, and examined after 24 hours of reflow. […] All subsequent studies as reported here were carried out using the 250 μg dose of NGAL. Comparisons were made between five different animal groups: non-ischemic controls (n=8), ischemic controls pre-treated with saline alone (n=8), NGAL pre-treated one hour prior to renal artery clamping (n=6), NGAL treated during renal artery clamping (n=6), and NGAL treated one hour post renal artery clamping (n=6).
For the TUNEL assay to detect apoptotic nuclei, we utilized the ApoAlert DNA Fragmentation Assay Kit (Clontech). Paraffin sections were deparaffinized through zylene and descending grades of ethanol, fixed with 4% formaldehyde/PBS for 30 min at 4° C., permeabilized with proteinase K at room temperature for 15 min and 0.2% triton X-100/PBS for 15 min at 4° C., and incubated with a mixture of nucleotides and TdT enzyme for 60 min at 37° C. The reaction was terminated with 2×SSC, the sections washed with PBS, and mounted with Crystal/mount (Biomeda, Foster City, Calif.). TUNEL-positive apoptotic nuclei were detected by visualization with a fluorescent microscope. […] Merely TUNEL positive cells, in the absence of morphologic criteria, were not considered apoptotic. Slides were examined in a blinded fashion, and apoptosis was quantified by counting the number of TUNEL positive nuclei per 100 cells counted in an average of five high power (40×) fields in each section.

Data set [2] relates to tubule epithelial cells. Put plainly: PCNA proliferation assay on kidney sections. Particulars: 24 h reflow. The procedure:
as §1
For detection of proliferating cells, sections were incubated with a monoclonal antibody to Proliferating Cell Nuclear Antigen (PCNA, 1:500 dilution, Upstate Biotechnology), and detection accomplished by immunoperoxidase staining as recommended by the manufacturer (ImmunoCruz Staining System, Santa Cruz Biotechnology). Slides were examined in a blinded fashion, and proliferation was quantified by counting the number of PCNA positive cells per 100 cells counted in an average of five high power (40×) fields in each section.

Data set [3] is described as follows: Uptake of intravenous NGAL into kidney and urine (immunofluorescence, Western blot). The conditions noted are these: within one hour of iv injection of 250 μg. As for the experimental part: as §1
For NGAL detection, frozen kidney sections were permeabilized with 0.2% Triton X-100 in PBS for 10 min, blocked with goat serum for 1 hr, and incubated with primary antibody to NGAL (1:500 dilution) for 1 hr. Slides were then exposed for 30 min in the dark to secondary antibodies conjugated with Cy5 (Amersham, Arlington Heights, Ill.), and visualized with a fluorescent microscope (Zeiss Axiophot) equipped with rhodamine filters.
A general note: A western blot detects proteins with antibodies after separation by electrophoresis.

The subject of data set [4] is mouse model of ATN or ischemia/reperfusion injury. Put plainly: Kidney histology in mouse ATN model. Particulars: NGAL-treated ATN kidneys vs ATN. The procedure:
Male C57BL/6 mice (20-25 gr; Charles River) were anesthetized with intraperitoneal pentobarbital (50 mg/kg) and placed on a heating pad under a warming light to maintain 37© core body temperature. Kidneys were exposed through an abdominal section and the right kidney was either removed or its vascular pedicle and ureter ligated. The vascular pedicle of the left kidney or both kidneys was clamped by a microaneurysm clip (Kent Scientific) for 30 minutes after right nephrectomy. This period of ischemia generated reproducible renal injury but minimized mortality. During the procedure, PBS (0.5 ml) was used to dampen the peritoneum. The animal was closed with 5-0 Nylon. Saline, NGAL, retinol-loaded retinol binding protein (RBP), enterochelin, or desferroxamine mesylate (DFO) were injected into the peritoneum or subcutaneously 15 min. prior to ischemia or 1-2 hr after reperfusion.
After 6 or 24 hr of reperfusion, heparinized plasma, urine and kidney samples were obtained to measure NGAL (polyclonal 1:500), Heme oxygenase-1 (Stressgen, 1:2000), E-cadherin (BD Transduction Labs, 1:2000), N-cadherin (BD Transduction Labs, 1:3000) and GAPDH (Chemicon International, 1:3000) using immunoblots. Plasma was also used for creatinine and blood urea nitrogen colorimetric assays. Sagittal sections of the kidney were fixed in 4% formalin, or were snap frozen for mRNA and protein analysis. […]

The nature of data set [5]: NGAL trafficking after intraperitoneal or subcutaneous injection. The source says: Recombinant human and mouse GST-NGAL were expressed in BL21 or XL1-Blue strains of E. coli (Stratagene) with additional ferric sulfate (50 Micro Molar, Sigma-Aldrich Co.). NGAL was isolated using Glutathione Sepharose 4B beads (Amersham Biosciences), eluted by thrombin cleavage (Sigma-Aldrich Co.; St. Louis, Mo.) and then further purified by gel filtration (Superdex75, SMART system, Amersham Biosciences) and examined by Coomassie gels (Biorad). BL-21 derived NGAL was loaded with iron free or iron saturated enterochelin, a siderophore (EMC Microcollections) using a 5 fold molar excess. Unbound siderophore (0.7 KD) was removed by washing (Microcon YM-10) with PBS. To produce ^55Fe or gallium (Ga) loaded NGAL we incubated the iron-free enterochelin NGAL complex with equimolar ^55Fe (18mCi) or Ga in NaCl (150 mM) Hepes (20 mM; pH 7.4) and the complex was washed 3 times (10K filter). Iodobeads (Pierce) were used to label NGAL with ^125I and unincorporated ^125I was removed by gel filtration (PD-10 column) followed by extensive dialysis (7 kDa cut off membrane, Pierce) against PBS. Alexa-568 and fluorescein isothiocyanate (Molecular Probes) was coupled to NGAL, according to the manufacturer, and then extensively dialyzed. Protein concentration was determined by Coomassie gels in comparison with bovine serum albumin standard.
To detect delivery of NGAL to the kidney rNGAL (10 or 100 μg), Alexa 568-NGAL (100 μg), ^125I-NGAL ([…], 2×10^6 cpm), or ^55Fe loaded enterochelin-NGAL (10 μg, 1×10^6 cpm) was injected into the peritoneum and blood, urine, kidney and liver samples were obtained. NGAL was detected by immunoblot. Alexa-568 NGAL was detected by confocal microscopy (LSM Meta Detector) and NGAL mediated iron trafficking was detected by scintillation counter and by light microscopic radioautography of Epon embedded kidneys. Slides were exposed to emulsion (Polyscience) for 1 week and then developed with Microdol and counterstained with Toluidine blue. To detect lysosomes in the proximal tubule, mice were injected with Fluorescein Dextran (46 kD; 0.5 mg; Sigma) 24 hours before Alexa 568 NGAL injections. LAMP1 (Santa Cruz) was detected in cryostat sections of 4% paraformaldehyde fixed kidneys.

“Also recorded” adds a separate entry of the source.

B1: NGAL: Purified endotoxin-free recombinant NGAL expressed as GST fusion protein in bacteria, thrombin cleaved (protein, UniProt P80188 21-198, looked up)
Neutrophil …: QDSTSDLIPAPPLSKVPLQQNFQDNQFQGKWYVVGLAGNAILREDKDPQKMYATIYELKEDKSYNVTSVLFRKKKCDYWIRTFVPGCQPGEFTLGNIKSYPGLTSYLVRVVSTNYNQHAMVFFKKVSQNREYFKITLYGRTKELTSELKENFIRFSKSLGLPENHIVFPVPIDQCIDG
Consider B1, for which the “apoptotic tubule epithelial cells (TUNEL-positive nuclei per hundred cells)” value in data set [1] (NGAL during ischemia) was 7.6%±0.8; in data set [1] (NGAL one hour after ischemia), 8.5%±0.8; in data set [1] (NGAL one hour before ischemia, saline 12.6%±2.2), 6.7%±1.6. For the same molecule, the “PCNA-positive tubule epithelial cells per hundred cells” value in data set [2] (NGAL during ischemia) is 14.9%±1.2; in data set [2] (NGAL one hour after ischemia), 14.5%±1.2; in data set [2] (NGAL one hour before ischemia, saline 4.4%±1.2) it was 19.1%±2.1. In addition, in data set [3], the “NGAL in urine by Western blot” value was “detected in the urine within one hour of injection; also recorded: easily detected in the kidney and urine”. For the same molecule, in data set [3] (ischemic mice), the “NGAL in kidney by immunofluorescence” value was “easily detected in a punctate cytoplasmic distribution predominantly in the proximal tubules”. Also, the “kidney histology (tubule morphology)” value in data set [4] was “normal epithelial morphology was preserved in the S1 and S2 segments of the proximal tubule; also recorded: preservation of cortical tubules, but residual cortical-medullary casts”. In addition, the “time to appearance of NGAL in the urine” value in data set [5] (injection of 100 μg exogenous NGAL) is at most 10 min. Further, the “injected NGAL recovered in the urine in the first hour” value in data set [5] (mouse, in vivo) was 0.1-0.2%.
